Changes are numbered by the printed parent chain.
B1: Human ST2 IgG1 Antibody 18 (antibody, V domains shown)
VH: QVQLVQSGAEVKKPGSQVKVSCKASGYTFTSFGISWVRQAPGQGLEWLGGIIPTLGTANYAQKFQGRVTITADDSTSTAYMELSSLRSEDTAVYYCAGGAAAGPDKYYGMDVWGQGTTVTVSS
VL: not shown
notes: IgG1; also called ST2 Antibody 18
B2: Human ST2 IgG1 Antibody 13 (antibody, V domains shown)
VH: QVQLVQSGAEVKKPGSSVKVSCKASGYTFTDYYMHWVRQAPGQGLEWMGGIMPLFGTIKYAQELQGRVTITADESTSTAYMELSSLRSEDTAVYYCARGRVGATDYWGQGTLVTVSS
VL: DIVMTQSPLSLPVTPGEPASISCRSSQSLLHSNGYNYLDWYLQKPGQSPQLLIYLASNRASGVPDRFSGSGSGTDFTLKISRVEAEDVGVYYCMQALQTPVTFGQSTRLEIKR
notes: IgG1; also called ST2 Antibody 13
B3: Human ST2 IgG1 Antibody 2 (antibody, V domains shown)
VH: QVQLVQSGAEVKKPGSSVKVSCKASGYTFSDYYVHWVRQAPGQGLEWMGGIIPIVGTANYAQKFQGRVTITADESTSTAYMELSSLRSEDTAVYYCARAGGGDYKSYYFDYWGRGTLVTVSS
VL: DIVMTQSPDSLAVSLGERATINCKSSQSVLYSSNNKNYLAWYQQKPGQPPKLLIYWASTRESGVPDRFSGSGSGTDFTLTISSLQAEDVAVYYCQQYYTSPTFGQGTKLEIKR
notes: IgG1; also called ST2 Antibody 2
B4: Human ST2 IgG1 Antibody 5 (antibody, V domains shown)
VH: EVQLLESGGGLVQPGGSLRLSCAASGFTFSSYWMSWVRQAPGKGLEWVSSISSDTTYKYYADSVKGRFTISRDNSKNTLYLQMNSLRAEDTAVYYCAREVDTAMKNWGQGTLVTVSS
VL: DIQMTQSPSSLSASVGDRVTITCRASQGIGNDLAWYQQKPGKAPKLLIYAASSLQSGVPSRFSGSGSGTDFTLTISSLQPEDFATYYCQQSYSTPYTFGQGTKVEIKR
notes: IgG1; also called ST2 Antibody 5
B5: Human ST2 IgG1 Antibody 9 (antibody, V domains shown)
VH: EVQLLESGGGLVQPGGSLRLSCAASGFAFSSHWMHWVRQAPGKGLEWVATISSGSHSIHYADSVKGRFTISRDNSKNTLYLQMNSLRAEDTAVYYCAREAGTSYYYYGMDVWGKGTTVTVSS
VL: B4 VL with R24Q, G28D, G30R, D32Y, A34N, A50K, Q55E, Y96P, Q100G
notes: IgG1; also called ST2 Antibody 9
B6: Human ST2 IgG1 Antibody 6 (antibody, V domains shown)
VH: EVQLLESGGGLVKPGGSLRLSCAASGFTFSSYWMSWVRQAPGKGLEWVSAIGGSGAGTYYADSVKGRFTISLDDSKNTLYLQMNSLKTEDTAVYYCARLSTVTRGFDYWGQGTLVTVSS
VL: B4 VL with G28S, G30S, D32W, A50S, S56N, Y96P
notes: IgG1; also called ST2 Antibody 6
B7: Human ST2 IgG1 Antibody 17 (antibody, V domains shown)
VH: QVQLVQSGAEVKKPGASVKVSCKASGYTFTDSFMFWVRQAPGQGLEWVGLINPGTGATIFAQKFQGRVTMTRDTSTSTVYMELSSLRSEDTAVYYCARSSDYDSSDYWGQGTLVTVSS
VL: B4 VL with G28S, G30S, N31T, D32W, A50G, S93N, T94S
notes: IgG1; also called ST2 Antibody 17
B8: Human ST2 IgG1 Antibody 19 (antibody, V domains shown)
VH: EVQLLESGGGLVQPGGSLRLSCAASGFSFSHAWMSWVRQAPGKGLEWVSVIHSGGSTFYADSVKGRFTISRDNSKNTLYLQMNSLRAEDTAVYYCARIGKGGGFDYWGQGTLVTVSS
VL: B4 VL with G28D, N31S, D32W, Y96P
notes: IgG1; also called ST2 Antibody 19
B9: Human ST2 IgG1 Antibody 12 (antibody, V domains shown)
VH: QVQLVQSGAEVKKPGASVKVSCKASGYTFTGYYMHWVRQAPGQGLEWMGIIDPSGGGTSYAQKFQGRVTMTRDTSTSTVYMELSSLRSEDTAVYYCAKDIVVVPAAIANYYYGMDVWGQGTTVTVSS
VL: B4 VL with A25V, G30S, D32Y, A34N, A50G, S53T, Y96W, Q100P, E105D
notes: IgG1; also called ST2 Antibody 12
B10: Human ST2 IgG1 Antibody 20 (antibody, V domains shown)
VH: EVQLLESGAEVKKPGSSVKVSCKASGGTFSSYAISWVRQAPGQGLEWMGGIIPIFGTANYAQKFQGRVTITADESTSTAYMELSSLRSEDTAVYYCASGFYSNDLYYYYYMDVWGKGTTVTVSS
VL: DIQMTQSPSSLSASVGDRVTITCRASQSISSWLAWYQQKPGKAPKLLIYDASNLKTGVPSRFSGSGSGTDFTLTISSLQPEDFATYYCQQTYAIPLTFGGGTKVEIKR
notes: IgG1; also called ST2 Antibody 20
B11: Human ST2 IgG1 Antibody 11 (antibody, V domains shown)
VH: QVQLVQSGAEVKKPGASVKVSCKASGGTFSSYAISWVRQAPGQGLEWMGWINPNSGGTNYAQKFQGRVTMTRDTSTSTVYMELSSLRSEDTAVYYCAMDTNYYYGMDVWGQGTTVTVSS
VL: DIQMTQSPSSLSASVGDRVTITCQASEDIANNLNWYQQKPGKAPKLLIYAASSLQSGVPSRFSGSGSGTDFTLTISSLQPEDFATYYCQQGYNIPFTFGQGTKLEIKR
notes: IgG1; also called ST2 Antibody 11
B12: Human ST2 IgG1 Antibody 1 (antibody, V domains shown)
VH: QVQLVQSGAEVKKPGSSVKVSCKASGGTFSSYAISWVRQAPGQGLEWMGGIIPIFGTANYAQKFQGRVTITADESTSTAYMELSSLRSEDTAVYYCAKSILGGRIFGGYFDLWGRGTLVTVSS
VL: DIVMTQSPLSLPVTPGEPASISCRSSQSLLHSNGYNYLDWYLQKPGQSPQLLIYAASSLQSGVPDRFSGSGSGTDFTLKISRVEAEDVGVYYCMQALQTPPTFGQGTKVEIKR
notes: IgG1; also called ST2 Antibody 1
B13: Human ST2 IgG1 Antibody 10 (antibody, V domains shown)
VH: QVQLVQSGAEVKKPGSSVKVSCKASGGTFGYYAISWVRQAPGQGLEWMGGIIPMVGTGQYAQEFQGRVTITADESTSTAYMELSSLRSEDTAVYYCAGVEVGATRGYFQHWGQGTLVTVSS
VL: B12 VL with S58T, A96G, L97T, Q98H, T99W, P101T, K108R, V109L
notes: IgG1; also called ST2 Antibody 10
B14: Human ST2 IgG1 Antibody 8 (antibody, V domains shown)
VH: QVQLVQSGAEVKKPGASVKVSCKASGGTFSSYAISWVRQAPGQGLEWMGWISPDNGNTNYAQKLQGRVTMTRDTSTSTVYMELSSLRSEDTAVYYCARLAYDTGYYYYYYMDVWGKGTTVTVSS
VL: B12 VL with S58T, A96G, L97T, Q98H, T99W, P101L
notes: IgG1; also called ST2 Antibody 8
B15: Human ST2 IgG1 Antibody 14 (antibody, V domains shown)
VH: QVQLVQSGAEVKKPGSSVKVSCKASGYTFTSYGISWVRQAPGQGLEWMGGIIPIFGTANYAPRFQGRVTITADESTSTAYMELSSLRSEDTAVYYCARDTVSMDVWGQGTTVTVSS
VL: B12 VL with A55D, S58N, Q60E, S61T, A96G, L97A, Q98H, T99W, V109L
notes: IgG1; also called ST2 Antibody 14
B16: Human ST2 IgG1 Antibody 4 (antibody, V domains shown)
VH: QVQLVQSGAEVKKPGSSVKVSCKASGGTFSTFGVSWVRQAPGQGLEWMGRIIPILATTNYAQKFQGRVTITADESTSTAYMELSSLRSEDTAVYYCASGDYYDSSGYYGYFQHWGQGTLVTVSS
VL: EIVMTQSPATLSVSPGERATLSCRASQSVSSSYLAWYQQKPGQAPRLLIYGASTRATGIPARFSGSGSGTEFTLTISSLQSEDFAVYYCQQSYSIPFTFGQGTKLEIKR
notes: IgG1; also called ST2 Antibody 4
B17: Human ST2 IgG1 Antibody 3 (antibody, V domains shown)
VH: QVQLVQSGAEVKKPGSSVKVSCKASGGTFSSYAFSWVRQAPGQGLEWMGGIIPIFGTPNYAQKFQGRVTITADESTSTAYMELSSLRSEDTAVYYCARVRAKRPNWYFDLWGRGTLVTVSS
VL: not shown
notes: IgG1; also called ST2 Antibody 3
B18: Human ST2 IgG1 Antibody 15 (antibody, V domains shown)
VH: B17 VH with F34I, I54M, P58T, R98T, R100A, K102A, R103G
VL: B4 VL with R24Q, G30S, D32Y, A34N, S53T, Y96P
notes: IgG1; also called ST2 Antibody 15
B19: Human ST2 IgG1 Antibody 16 (antibody, V domains shown)
VH: QVQLVQSGAEVKKPGASVKVSCKASGYTFTSHYMHWVRQAPGQGLEWMGIINPSGGSTSYAQKFQGRVTMTRDTSTSTVYMELSSLRSEDTAVYYCARAGIGYLAAHDLYYYYGMDVWGRGTLVTVSS
VL: EIVMTQSPATLSVSPGERATLSCRASQSVSSNFAWYQQKPGQAPRLLIYGASTRATGIPARFSGSGSGTEFTLTISSLQSEDFAVYYCQQYYSTPYTFGQGTKVEIKR
notes: IgG1; also called ST2 Antibody 16
B20: Human ST2 IgG1 Antibody 7 (antibody, V domains shown)
VH: QVQLVQSGAEVKKPGASVKVSCKASGYTFTDSYIHWVRQAPGQGLEWMGWMNPNSGNTGYAQKFQGRVTMTRDTSTSTVYMELSSLRSEDTAVYYCARGVFDYGDYGYYYHYMDVWGKGTTVTVSS
VL: DIVMTQSPLSLPVTPGEPASISCRSSQSLLHSNGYNYLDWYLQKPGQSPQLLIYGASTLQPGVPDRFSGSGSGTDFTLKISRVEAEDVGVYYCMQGTQWPTFGQGTKLEIKR
notes: IgG1; also called ST2 Antibody 7

Biological target: T1, Human ST2 (human, UniProt Q01638 19-328, limits assumed)
T1 construct: also called human ST2 protein; Interleukin 1 receptor-like 1
T1 sequence (looked up): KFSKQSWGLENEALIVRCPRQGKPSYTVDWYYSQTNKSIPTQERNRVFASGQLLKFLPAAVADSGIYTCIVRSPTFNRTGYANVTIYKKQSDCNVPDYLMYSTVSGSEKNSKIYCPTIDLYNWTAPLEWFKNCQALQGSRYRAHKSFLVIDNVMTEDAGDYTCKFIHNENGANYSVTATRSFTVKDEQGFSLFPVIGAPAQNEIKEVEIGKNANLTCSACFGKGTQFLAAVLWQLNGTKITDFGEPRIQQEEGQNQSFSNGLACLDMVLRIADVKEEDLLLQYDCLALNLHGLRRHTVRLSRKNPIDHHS
Test: SPR (Carterra), antibody immobilized, ST2 analyte
Experimental: Binding of the reformatted human ST2 antibodies to the human and mouse ST2 proteins was evaluated by surface plasmon resonance (SPR), using a high throughput antibody screening and characterization platform from Carterra (Salt Lake City, Utah).

| Binder | Kd | koff | kon |
| --- | --- | --- | --- |
| B1 | 1100 nM | 0.11 s⁻¹ | 95000 M⁻¹ s⁻¹ |
| B2 | 201 nM | 0.04 s⁻¹ | 200000 M⁻¹ s⁻¹ |
| B3 | 229 nM | 0.11 s⁻¹ | 500000 M⁻¹ s⁻¹ |
| B4 | 190 nM | 0.048 s⁻¹ | 250000 M⁻¹ s⁻¹ |
| B5 | 293 nM | 0.036 s⁻¹ | 120000 M⁻¹ s⁻¹ |
| B6 | 166 nM | 0.057 s⁻¹ | 340000 M⁻¹ s⁻¹ |
| B7 | 433 nM | 0.033 s⁻¹ | 76000 M⁻¹ s⁻¹ |
| B8 | 113 nM | 0.062 s⁻¹ | 550000 M⁻¹ s⁻¹ |
| B9 | 217 nM | 0.024 s⁻¹ | 110000 M⁻¹ s⁻¹ |
| B10 | 81 nM | 0.065 s⁻¹ | 810000 M⁻¹ s⁻¹ |
| B11 | 25 nM | 0.019 s⁻¹ | 780000 M⁻¹ s⁻¹ |
| B12 | 617 nM | 0.072 s⁻¹ | 120000 M⁻¹ s⁻¹ |
| B13 | 131 nM | 0.079 s⁻¹ | 600000 M⁻¹ s⁻¹ |
| B14 | 153 nM | 0.017 s⁻¹ | 110000 M⁻¹ s⁻¹ |
| B15 | 42 nM | 0.017 s⁻¹ | 400000 M⁻¹ s⁻¹ |
| B16 | 12 nM | 0.0025 s⁻¹ | 210000 M⁻¹ s⁻¹ |
| B17 | 146 nM | 0.042 s⁻¹ | 290000 M⁻¹ s⁻¹ |
| B18 | 769 nM | 0.14 s⁻¹ | 190000 M⁻¹ s⁻¹ |
| B19 | 96 nM | 0.056 s⁻¹ | 580000 M⁻¹ s⁻¹ |
| B20 | 15 nM | 0.0044 s⁻¹ | 290000 M⁻¹ s⁻¹ |
